± gives the standard error. For some assays here: This sample holds only a part of the variants without activity.
B1: glmS ribozyme (parent)
chain: AUAAAAGCGCCAGAACUACAGAAAUGUAGUUGACGAGGAGGAGGUUUAUCGAAUUUUCGGCGGAUGCCUCCAAA

Tests used:
Conditions in all cases: with glucosamine-6-phosphate
[1] = variants of: B1; assay: kcat; higher = faster cleavage; RNA array
How it was run: (§1)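 Over ~14 h at 37 °C, tiles were imaged as glucosamine-6-phosphate (40 μM to 10 mM) in HEPES/KCl/Mg(OAc)2 buffer flowed across sequenced MiSeq chips. The chips carried barcoded ribozyme variants transcribed in situ by E. coli RNA polymerase and tracked with a hybridised Cy3 probe. After normalisation to baseline and to non-cleaving reference variants, one- or two-exponential decay fits of per-tile medians gave kobs. kcat and KM followed from weighted Michaelis–Menten fits across concentrations.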

[2] = variants of: B1; assay: KM; higher = weaker cofactor use; RNA array
How it was run: as §1

[3] = variants of: B1; assay: self-cleavage kobs at 40 uM GlcN6P; higher = faster cleavage; RNA array
How it was run: as §1

[4] = variants of: B1; assay: self-cleavage kobs at 160 uM GlcN6P; higher = faster cleavage; RNA array
How it was run: as §1

[5] = variants of: B1; assay: self-cleavage kobs at 640 uM GlcN6P; higher = faster cleavage; RNA array
How it was run: as §1

[6] = variants of: B1; assay: self-cleavage kobs at 2500 uM GlcN6P; higher = faster cleavage; RNA array
How it was run: as §1

[7] = variants of: B1; assay: self-cleavage kobs at 10000 uM GlcN6P; higher = faster cleavage; RNA array
How it was run: as §1

Row | Variant | kcat [1] [s⁻¹] | KM [2] [µM] | self-cleavage kobs at 40 uM GlcN6P [3] [s⁻¹] | self-cleavage kobs at 160 uM GlcN6P [4] [s⁻¹] | self-cleavage kobs at 640 uM GlcN6P [5] [s⁻¹] | self-cleavage kobs at 2500 uM GlcN6P [6] [s⁻¹] | self-cleavage kobs at 10000 uM GlcN6P [7] [s⁻¹]
1 | C16U C61A | 1.08e-05 ± 2.3e-06 |  |  |  |  |  | 
2 | A15U U55C | 0.00268 ± 0.0003 | 915 ± 160 | 0.000117 ± 2.1e-05 | 0.00039 ± 6.4e-05 | 0.00136 ± 0.00052 | 0.00158 ± 0.00036 | 0.00269 ± 0.00038
3 | C16A G51A U56G C68G | 1.58e-05 ± 2.3e-06 |  |  |  |  |  | 
4 | C16U C70A | 0.000203 ± 1.9e-05 | 296 ± 79 |  | 7.15e-05 ± 9.6e-06 | 0.000148 ± 2.1e-05 | 0.000204 ± 2.2e-05 | 0.000177 ± 2e-05
5 | C16A G29A | 0.00235 ± 0.00058 | 1790 ± 630 | 7.39e-05 ± 1.3e-05 | 0.000175 ± 3.3e-05 | 0.000549 ± 9.9e-05 | 0.00127 ± 0.00024 | 0.00227 ± 0.00042
6 | A15U U56G | 0.00786 ± 0.0027 | 3290 ± 1500 | 0.000149 ± 2.5e-05 | 0.000265 ± 5e-05 | 0.00143 ± 0.00018 | 0.00363 ± 0.00053 | 0.00565 ± 0.00088
7 | C16U A39U | 0.0586 ± 0.022 | 9390 ± 4200 |  | 0.00114 ± 0.00038 | 0.00392 ± 0.00055 | 0.0111 ± 0.0017 | 0.034 ± 0.0081
8 | A15U U54A | 0.00741 ± 0.001 | 1360 ± 360 |  | 0.00059 ± 0.00026 | 0.00262 ± 0.00048 | 0.00516 ± 0.0014 | 0.00623 ± 0.0012
9 | C16A A53C | 0.000269 ± 1.8e-05 | 1770 ± 270 |  | 3.05e-05 ± 1.2e-05 | 6.66e-05 ± 1.2e-05 | 0.000164 ± 2.3e-05 | 0.000226 ± 2.5e-05
10 | C16G U46C | 0.000353 ± 5e-05 | 2310 ± 630 |  |  | 8.24e-05 ± 2.7e-05 | 0.000169 ± 3.5e-05 | 0.00032 ± 9e-05
11 | C16G U55C | 0.00146 ± 0.00056 |  | 4.65e-05 ± 1.3e-05 | 0.000158 ± 7.7e-05 | 0.000574 ± 8.2e-05 | 0.000702 ± 0.00013 | 0.00213 ± 0.00033
12 | C16G U55A | 0.00566 ± 0.0022 |  | 0.00015 ± 1.9e-05 | 0.000313 ± 6.3e-05 | 0.000819 ± 0.00014 | 0.00327 ± 0.00047 | 0.00463 ± 0.00062
13 | A15U U65A | 0.000377 ± 6.3e-05 | 1080 ± 410 |  | 6.26e-05 ± 2.2e-05 | 0.000146 ± 2.3e-05 | 0.00021 ± 4.1e-05 | 0.00039 ± 5.6e-05
14 | C16U A48G | 7.95e-05 ± 1.2e-05 |  |  |  |  | 6.63e-05 ± 1.1e-05 | 6.95e-05 ± 8.6e-06
15 | C16U A48U | 0.000375 ± 9.7e-06 | 2630 ± 150 |  |  | 7.24e-05 ± 1.5e-05 | 0.000181 ± 4.1e-05 | 0.000297 ± 3.3e-05
16 | C16U C61G C67A | 2.72e-05 ± 6.4e-06 |  |  |  |  |  | 
17 | C16U | 0.0542 ± 0.005 | 2230 ± 230 | 0.000969 ± 1.7e-05 | 0.00308 ± 0.0002 | 0.0121 ± 0.00055 | 0.0272 ± 0.0015 | 0.0458 ± 0.0022
18 | C16G | 0.0106 ± 0.0035 | 2880 ± 1100 | 0.000174 ± 3.5e-06 | 0.000423 ± 1.5e-05 | 0.00182 ± 8.5e-05 | 0.01 ± 0.0036 | 0.0085 ± 0.0003
19 | C16A | 0.00334 ± 0.00087 | 2630 ± 840 | 6.14e-05 ± 1.3e-06 | 0.000152 ± 5e-06 | 0.000602 ± 3.1e-05 | 0.0017 ± 7.8e-05 | 0.00269 ± 8.5e-05
20 | C16G C58G | 6.23e-05 ± 1.2e-05 |  | < 1e-05 |  |  | 7.72e-05 ± 1.5e-05 | 5.56e-05 ± 8.3e-06
21 | C16A C61G | 1.13e-05 ± 1.7e-08 | 158.6 ± 1.5 |  |  |  |  | 
22 | C16G G29U U54A | 0.024 ± 0.011 |  | 0.000213 ± 4.2e-05 | 0.000446 ± 0.00014 | 0.00332 ± 0.00054 | 0.0157 ± 0.0041 | 0.0148 ± 0.0026
23 | C16A C68U | 9.12e-05 ± 2.9e-06 | 878 ± 110 |  |  | 3.93e-05 ± 7.5e-06 | 6.55e-05 ± 6.5e-06 | 8.53e-05 ± 7.2e-06
24 | C16A C71G | 6.32e-05 ± 9.8e-06 |  |  | 3.88e-05 ± 1.5e-05 | 7.21e-05 ± 1.7e-05 | 9.36e-05 ± 1.5e-05 | 5.48e-05 ± 6.9e-06
25 | C16U A33U | 0.000109 ± 1.2e-05 | 2420 ± 740 |  |  | 3.18e-05 ± 8.4e-06 | 5.09e-05 ± 6.2e-06 | 8.92e-05 ± 7.1e-06
26 | C16A U55G | 0.00294 ± 0.001 |  | 4.26e-05 ± 1.2e-05 | 0.000166 ± 3.8e-05 | 0.000304 ± 5.7e-05 | 0.00101 ± 0.00012 | 0.00216 ± 0.00033
27 | C16G U47A | 0.00274 ± 0.00078 | 1710 ± 700 | 6.21e-05 ± 9.9e-06 | 0.00027 ± 3.9e-05 | 0.000755 ± 0.00013 | 0.00124 ± 0.0002 | 0.00329 ± 0.00047
28 | C16G U47G | 0.000729 ± 0.00014 | 1210 ± 400 |  | 7.03e-05 ± 1.6e-05 | 0.000307 ± 4.8e-05 | 0.000604 ± 0.0001 | 0.000565 ± 0.0001
29 | C16A U31G | 0.000292 ± 2.2e-05 | 1280 ± 200 |  | 4.15e-05 ± 1.7e-05 | 9.42e-05 ± 1.8e-05 | 0.000177 ± 5e-05 | 0.000267 ± 4.3e-05
